The supplement of paper PMC10567573

B1: LPCAT4 (parent)
chain: HDPLYGKLFSTYLRPPHTSRGTSQ

Variants of: B1
Assay: protein stability index of a GFP-peptide fusion (GPS, HEK-293T) (PSI 1-6); higher = more stable
Settings: c terminus: a fixed tail appended
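Also: lentivirally expressed fusions sorted by FACS into six bins by GFP to DsRed ratio, PSI derived from sequencing read proportions per bin multiplied by bin number.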

In order of falling protein stability index:
1. HDPLYGKLFSTYLRPPHTSEGTSQ  3.53
2. HDPLYGKLFSTYLRPPHTSRDTSQ  3.4
3. HDPLYGKLFSTYLRPPHTSRGTSD  3.28
4. HDPLYGKLFSTYLRPPHTNRGTSQ  3.12
5. HDPLYGKLFSTYLRPPHTDRGTSQ  3.1
6. HDPLYGKLFSTYLRPPHTSRGTSE  3.01
7. HDPLYGKLFSTYLRPPPTSRGTSQ  2.99
8. HDPLYGKLFSTYLRPPHTSRQTSQ  2.95
9. HDPLYGKLFSTYLRPPHTSRATSQ  2.95
10. HDPLYGKLFSTYLRPPHTCRGTSQ  2.91
11. HDPLYGKLFSTYLRPPFTSRGTSQ  2.9
12. HDPLYGKLFSTYLRPPHTSHGTSQ  2.86
13. HDPLYGKLFSTYLRPPHTSQGTSQ  2.85
14. HDPLYGKLFSTYLRPPHTSGGTSQ  2.83
15. HDPLYGKLFSTYLRPPHTSRVTSQ  2.82
16. HDPLYGKLFSTYLRPPTTSRGTSQ  2.82
17. HDPLYGKLFSTYLRPPHTGRGTSQ  2.8
18. HDPLYGKLFSTYLRPPHTSKGTSQ  2.8
19. HDPLYGKLFSTYLRPPHTIRGTSQ  2.79
20. HDPLYGKLFSTYLRPPHTSRGTSN  2.78
21. HDPLYGKLFSTYLRPPHTSAGTSQ  2.78
22. HDPLYGKLFSTYLRPPHTSRGGSQ  2.75
23. HDPLYGKLFSTYLRPPHTRRGTSQ  2.74
24. HDPLYGKLFSTYLRPPHTARGTSQ  2.72
25. HDPLYGKLFSTYLRPPHTSRGTSS  2.72
26. HDPLYGKLFSTYLRPPHTPRGTSQ  2.7
27. HDPLYGKLFSTYLRPPHTSRETSQ  2.69
28. HDPLYGKLFSTYLRPPHTSRMTSQ  2.67
29. HDPLYGKLFSTYLRPPHTSRSTSQ  2.67
30. HDPLYGKLFSTYLRPPHTSTGTSQ  2.67
31. HDPLYGKLFSTYLRPPHTSDGTSQ  2.67
32. HDPLYGKLFSTYLRPPHTSRGASQ  2.66
33. HDPLYGKLFSTYLRPPLTSRGTSQ  2.66
34. HDPLYGKLFSTYLRPPHTSPGTSQ  2.66
35. HDPLYGKLFSTYLRPPHTSRGTSC  2.64
36. HDPLYGKLFSTYLRPPHTKRGTSQ  2.62
37. HDPLYGKLFSTYLRPPHTTRGTSQ  2.61
38. HDPLYGKLFSTYLRPPQTSRGTSQ  2.61
39. HDPLYGKLFSTYLRPPNTSRGTSQ  2.59
40. HDPLYGKLFSTYLRPPHTSSGTSQ  2.58
41. HDPLYGKLFSTYLRPPHTSRPTSQ  2.56
42. HDPLYGKLFSTYLRPPHTSRGTSK  2.56
43. HDPLYGKLFSTYLRPPHTSNGTSQ  2.56
44. HDPLYGKLFSTYLRPPHTVRGTSQ  2.55
45. HDPLYGKLFSTYLRPPHTSRKTSQ  2.55
46. HDPLYGKLFSTYLRPPYTSRGTSQ  2.53
47. HDPLYGKLFSTYLRPPVTSRGTSQ  2.53
48. HDPLYGKLFSTYLRPPHTSRGTST  2.53
49. HDPLYGKLFSTYLRPPHTQRGTSQ  2.51
50. HDPLYGKLFSTYLRPPHTSRCTSQ  2.51
51. HDPLYGKLFSTYLRPPHTSRTTSQ  2.49
52. HDPLYGKLFSTYLRPPHTSRGRSQ  2.48
53. HDPLYGKLFSTYLRPPHTSRLTSQ  2.48
54. HDPLYGKLFSTYLRPPHTSRFTSQ  2.46
55. HDPLYGKLFSTYLRPPHTSRGTSM  2.45
56. HDPLYGKLFSTYLRPPHTERGTSQ  2.44
57. HDPLYGKLFSTYLRPPMTSRGTSQ  2.43
58. HDPLYGKLFSTYLRPPITSRGTSQ  2.43
59. HDPLYGKLFSTYLRPPHTSRGTSP  2.43
60. HDPLYGKLFSTYLRPPHTSIGTSQ  2.43
61. HDPLYGKLFSTYLRPPHTSRRTSQ  2.42
62. HDPLYGKLFSTYLRPPHTSRNTSQ  2.42
63. HDPLYGKLFSTYLRPPHTSRGTSV  2.42
64. HDPLYGKLFSTYLRPPHTSRITSQ  2.41
65. HDPLYGKLFSTYLRPPHTSRGTSR  2.39
66. HDPLYGKLFSTYLRPPHTYRGTSQ  2.38
67. HDPLYGKLFSTYLRPPKTSRGTSQ  2.38
68. HDPLYGKLFSTYLRPPHTLRGTSQ  2.36
69. HDPLYGKLFSTYLRPPHTSRGTSG  2.36
70. HDPLYGKLFSTYLRPPHTSCGTSQ  2.36
71. HDPLYGKLFSTYLRPPHTMRGTSQ  2.35
72. HDPLYGKLFSTYLRPPSTSRGTSQ  2.31
73. HDPLYGKLFSTYLRPPRTSRGTSQ  2.3
74. HDPLYGKLFSTYLRPPHTSRGTSH  2.3
75. HDPLYGKLFSTYLRPPHTSYGTSQ  2.3
76. HDPLYGKLFSTYLRPPHTHRGTSQ  2.29
77. HDPLYGKLFSTYLRPPHTSRGTSL  2.29
78. HDPLYGKLFSTYLRPPHTSVGTSQ  2.29
79. HDPLYGKLFSTYLRPPHTSRGTSA  2.28
80. HDPLYGKLFSTYLRPPHTSRGTSF  2.28
81. HDPLYGKLFSTYLRPPGTSRGTSQ  2.25
82. HDPLYGKLFSTYLRPPHTSWGTSQ  2.2
83. HDPLYGKLFSTYLRPPWTSRGTSQ  2.19
84. HDPLYGKLFSTYLRPPHTSLGTSQ  2.19
85. HDPLYGKLFSTYLRPPHTSFGTSQ  2.17
86. HDPLYGKLFSTYLRPPHTSRGTSW  2.13
87. HDPLYGKLFSTYLRPPHTSRHTSQ  2.11
88. HDPLYGKLFSTYLRPPHTSRGTSI  2.11
89. HDPLYGKLFSTYLRPPHTSMGTSQ  2.08
90. HDPLYGKLFSTYLRPPHTFRGTSQ  2.07
91. HDPLYGKLFSTYLRPPHTSRGTSY  2.07
92. HDPLYGKLFSTYLRPPHTSRWTSQ  2
93. HDPLYGKLFSTYLRPPHTWRGTSQ  1.95
94. HDPLYGKLFSTYLRPPHTSRYTSQ  1.87
